# Results from patent US20130058962A1 (published 2013).
# Changes are numbered by the printed parent chain. Where “and” joins values, the source holds several entries; their conditions need not be identical. Equal values may be shown once.
# B1: JDQ-E9 (VHH)
# VHH: QVQLVESGGGLVRPGGSLRLSCVVSGFAYEMPMMGWYRQAPGNQRELVATIGTGGRMNYADSVKGRFTISRDNAKNTVYLQMNSLKPEDTAAYYCKIEFTNYWGQGTQVTVSS
# B2: ciA-G5 (VHH)
# VHH: QVQLVESGGGLVQPGGSLRLSCQVSGFTFGDWVMSWFRQAPGKEREFVASITATSSLKYYADSVKGRFTISRDNVNNTLFLQMDRLKSEDTAVYYCRSPNYWGQGTQVTVSA
# B3: JDQ-F9 (VHH)
# VHH: QVQLVESGGGLVQDGGSLRLSCTTSGSIDSFNAIEWYRQAPGKQRELVASISSDGRRTNYADSVKGRFTISGDNAKNTVYLQMNSLKPEDTAVYYCHRPFTHYWGQGTQVTVSS
# B4: JDQ-B2 (VHH)
# VHH: QVQLVESGGGLVQPGGSLRLSCTVSGSIFDLPGMNWYRQAPGAQRELVADISSDGRRTNYADSVKGRFTMSRDNAKKTVYLQMDSLKPDDTAVYYCNVKFTHHWGQGIQVTVSS
# B5: JDQ-C5 (VHH)
# VHH: B4 VHH with D30G, N35S, R56G, N59H, M70I, A75D
# B6: scFv#7 (scFv)
# scFv: SYELTQPPSMSVALGQTAKVTCQGDNLENFYVQWHQQKPGQAPVTVIFQDNKRPSGIPDRFSGSNSGNTATLTISGARTEDEADYYCQSGHSSIGGVFGSGTSLTVLGQPAAAGGGGSGGGGSGGGGSARQVQLQESGPSLVKPSQTLSLTCTVSGFSLTGNSVTWVRQAPGNVPEWLGGISRGGRTYYDTALKSRLSITRDTSKRQVSLSLSSVTTEDTAMYFCARSAYSTLYDYEYAADIYDWGPGLLVTVSSTSGAPVPYPDPLEPRAA
# B7: ciA-A5 (VHH)
# VHH: QVQLVESGGGLVQPGGSLRLSCAASAGNLDYYAIGWFRQAPGKEREGVSCISSSDGSTVYTDSVKGRFTISRDNTKNTVDLQMDNLKPEDTAVYYCATVVNYYCTAGGSIHASPYEIWGQGTQVTVSS
# B8: 5D/AA6 VHH heterodimer (bispecific antibody)
# chain: QVQLVESGGGLVQPGGSLRLSCEASGFTLDYYGIGWFRQPPGKEREAVSYISASARTILYADSVKGRFTISRDNAKNAVYLQMNSLKREDTAVYYCARRRFSASSVNRWLADDYDVWGRGTQVAVSSEPKTPKPQGGGGSGGGGSGGGGSQLQLVETGGGLVQPGGSLRLSCAASGFTFSDYVMTWVRQAPGKGPEWIATINTDGSTMRDDSTKGRFTISRDNAKNTLYLQMTSLKPEDTALYYCARGRVISASAIRGAVRGPGTQVTVSSEPKTPKPQP
# Assays:
# [1] = biological target: T1, Botulinum neurotoxin serotype A1 (BoNT/A) holotoxin (Clostridium botulinum, UniProt P0DPI1 2-1296); experiment: binding competition assay
# [2] = biological target: purified recombinant BoNT/A light chain (Clostridium botulinum, UniProt P0DPI1 2-448); experiment: ELISA on BoNT subunits / Western blot of reduced holotoxin
# BoNT/A heavy chain = BoNT/A heavy chain (Clostridium botulinum, UniProt P0DPI1 449-1296); experiment: as above
# [3] = biological target: T1, Botulinum neurotoxin serotype A1 …; experiment: method not stated
# [4] = biological target: Clostridium difficile toxin A (TcdA) holotoxin (Clostridium difficile) (UniProt P16154); experiment: cell-based or functional assay
# [5] = biological target: Clostridium difficile toxin B (TcdB) holotoxin (Clostridium difficile) (UniProt P18177); experiment: cell-based or functional assay
# Sequence of Clostridium difficile toxin B (TcdB) holotoxin (Clostridium difficile) (P18177 2-2366): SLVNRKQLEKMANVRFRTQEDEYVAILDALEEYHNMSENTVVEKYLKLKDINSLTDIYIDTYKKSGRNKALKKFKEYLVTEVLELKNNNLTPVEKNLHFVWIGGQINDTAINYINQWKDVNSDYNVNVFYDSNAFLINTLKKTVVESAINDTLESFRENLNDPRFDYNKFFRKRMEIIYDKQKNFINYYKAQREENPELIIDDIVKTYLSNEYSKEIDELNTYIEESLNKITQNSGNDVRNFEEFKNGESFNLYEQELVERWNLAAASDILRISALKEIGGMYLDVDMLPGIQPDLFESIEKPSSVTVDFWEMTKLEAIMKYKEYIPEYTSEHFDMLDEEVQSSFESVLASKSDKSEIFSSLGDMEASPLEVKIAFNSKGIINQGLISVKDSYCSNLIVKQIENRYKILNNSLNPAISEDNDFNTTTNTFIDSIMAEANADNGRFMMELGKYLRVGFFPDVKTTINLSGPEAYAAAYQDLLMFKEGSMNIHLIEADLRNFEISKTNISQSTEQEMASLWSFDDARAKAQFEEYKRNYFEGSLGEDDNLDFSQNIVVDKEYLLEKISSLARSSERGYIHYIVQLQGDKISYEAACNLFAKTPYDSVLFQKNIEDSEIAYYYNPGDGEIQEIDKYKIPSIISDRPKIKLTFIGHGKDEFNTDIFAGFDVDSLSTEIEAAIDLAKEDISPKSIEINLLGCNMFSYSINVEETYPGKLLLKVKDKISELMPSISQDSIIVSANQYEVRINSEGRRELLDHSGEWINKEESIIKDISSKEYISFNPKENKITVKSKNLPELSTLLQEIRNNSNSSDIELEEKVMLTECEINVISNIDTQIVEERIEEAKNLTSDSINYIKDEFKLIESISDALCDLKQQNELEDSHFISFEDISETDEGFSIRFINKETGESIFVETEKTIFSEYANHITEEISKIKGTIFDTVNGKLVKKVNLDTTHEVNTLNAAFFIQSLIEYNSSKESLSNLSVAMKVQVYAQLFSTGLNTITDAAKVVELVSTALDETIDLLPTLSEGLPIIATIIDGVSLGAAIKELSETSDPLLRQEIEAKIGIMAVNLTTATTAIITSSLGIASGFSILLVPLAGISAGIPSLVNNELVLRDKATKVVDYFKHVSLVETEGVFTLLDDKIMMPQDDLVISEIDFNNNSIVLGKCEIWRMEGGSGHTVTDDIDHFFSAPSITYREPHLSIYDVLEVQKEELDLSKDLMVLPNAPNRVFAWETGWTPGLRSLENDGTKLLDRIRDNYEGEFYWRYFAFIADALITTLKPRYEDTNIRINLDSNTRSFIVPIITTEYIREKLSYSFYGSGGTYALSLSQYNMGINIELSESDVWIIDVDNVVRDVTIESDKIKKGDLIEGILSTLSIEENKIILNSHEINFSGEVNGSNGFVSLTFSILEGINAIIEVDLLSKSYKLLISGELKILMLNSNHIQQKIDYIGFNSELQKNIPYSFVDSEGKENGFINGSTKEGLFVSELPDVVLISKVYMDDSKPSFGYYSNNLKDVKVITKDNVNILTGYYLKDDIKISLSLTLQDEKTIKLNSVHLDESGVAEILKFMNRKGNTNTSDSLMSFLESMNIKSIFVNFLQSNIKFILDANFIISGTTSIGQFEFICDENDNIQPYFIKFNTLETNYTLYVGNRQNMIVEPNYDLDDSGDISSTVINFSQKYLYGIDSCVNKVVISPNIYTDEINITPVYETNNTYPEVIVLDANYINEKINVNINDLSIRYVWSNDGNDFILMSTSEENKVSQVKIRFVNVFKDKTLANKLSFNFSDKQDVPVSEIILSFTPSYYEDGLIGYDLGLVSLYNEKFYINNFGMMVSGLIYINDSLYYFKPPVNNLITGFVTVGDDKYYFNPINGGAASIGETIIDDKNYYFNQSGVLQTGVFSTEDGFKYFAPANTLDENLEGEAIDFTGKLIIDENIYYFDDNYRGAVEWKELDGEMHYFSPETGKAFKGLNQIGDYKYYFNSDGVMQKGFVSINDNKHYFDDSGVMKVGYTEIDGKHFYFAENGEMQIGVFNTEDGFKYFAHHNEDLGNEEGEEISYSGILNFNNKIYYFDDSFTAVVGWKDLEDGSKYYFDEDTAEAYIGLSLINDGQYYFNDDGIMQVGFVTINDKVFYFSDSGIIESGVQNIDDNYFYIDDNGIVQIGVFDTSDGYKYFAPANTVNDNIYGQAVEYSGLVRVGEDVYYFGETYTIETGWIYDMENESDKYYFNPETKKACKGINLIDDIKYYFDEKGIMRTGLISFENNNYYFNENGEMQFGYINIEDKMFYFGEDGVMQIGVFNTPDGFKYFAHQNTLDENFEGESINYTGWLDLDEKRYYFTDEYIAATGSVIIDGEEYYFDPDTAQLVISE
# Sequence of Clostridium difficile toxin A (TcdA) holotoxin (Clostridium difficile) (P16154 whole entry): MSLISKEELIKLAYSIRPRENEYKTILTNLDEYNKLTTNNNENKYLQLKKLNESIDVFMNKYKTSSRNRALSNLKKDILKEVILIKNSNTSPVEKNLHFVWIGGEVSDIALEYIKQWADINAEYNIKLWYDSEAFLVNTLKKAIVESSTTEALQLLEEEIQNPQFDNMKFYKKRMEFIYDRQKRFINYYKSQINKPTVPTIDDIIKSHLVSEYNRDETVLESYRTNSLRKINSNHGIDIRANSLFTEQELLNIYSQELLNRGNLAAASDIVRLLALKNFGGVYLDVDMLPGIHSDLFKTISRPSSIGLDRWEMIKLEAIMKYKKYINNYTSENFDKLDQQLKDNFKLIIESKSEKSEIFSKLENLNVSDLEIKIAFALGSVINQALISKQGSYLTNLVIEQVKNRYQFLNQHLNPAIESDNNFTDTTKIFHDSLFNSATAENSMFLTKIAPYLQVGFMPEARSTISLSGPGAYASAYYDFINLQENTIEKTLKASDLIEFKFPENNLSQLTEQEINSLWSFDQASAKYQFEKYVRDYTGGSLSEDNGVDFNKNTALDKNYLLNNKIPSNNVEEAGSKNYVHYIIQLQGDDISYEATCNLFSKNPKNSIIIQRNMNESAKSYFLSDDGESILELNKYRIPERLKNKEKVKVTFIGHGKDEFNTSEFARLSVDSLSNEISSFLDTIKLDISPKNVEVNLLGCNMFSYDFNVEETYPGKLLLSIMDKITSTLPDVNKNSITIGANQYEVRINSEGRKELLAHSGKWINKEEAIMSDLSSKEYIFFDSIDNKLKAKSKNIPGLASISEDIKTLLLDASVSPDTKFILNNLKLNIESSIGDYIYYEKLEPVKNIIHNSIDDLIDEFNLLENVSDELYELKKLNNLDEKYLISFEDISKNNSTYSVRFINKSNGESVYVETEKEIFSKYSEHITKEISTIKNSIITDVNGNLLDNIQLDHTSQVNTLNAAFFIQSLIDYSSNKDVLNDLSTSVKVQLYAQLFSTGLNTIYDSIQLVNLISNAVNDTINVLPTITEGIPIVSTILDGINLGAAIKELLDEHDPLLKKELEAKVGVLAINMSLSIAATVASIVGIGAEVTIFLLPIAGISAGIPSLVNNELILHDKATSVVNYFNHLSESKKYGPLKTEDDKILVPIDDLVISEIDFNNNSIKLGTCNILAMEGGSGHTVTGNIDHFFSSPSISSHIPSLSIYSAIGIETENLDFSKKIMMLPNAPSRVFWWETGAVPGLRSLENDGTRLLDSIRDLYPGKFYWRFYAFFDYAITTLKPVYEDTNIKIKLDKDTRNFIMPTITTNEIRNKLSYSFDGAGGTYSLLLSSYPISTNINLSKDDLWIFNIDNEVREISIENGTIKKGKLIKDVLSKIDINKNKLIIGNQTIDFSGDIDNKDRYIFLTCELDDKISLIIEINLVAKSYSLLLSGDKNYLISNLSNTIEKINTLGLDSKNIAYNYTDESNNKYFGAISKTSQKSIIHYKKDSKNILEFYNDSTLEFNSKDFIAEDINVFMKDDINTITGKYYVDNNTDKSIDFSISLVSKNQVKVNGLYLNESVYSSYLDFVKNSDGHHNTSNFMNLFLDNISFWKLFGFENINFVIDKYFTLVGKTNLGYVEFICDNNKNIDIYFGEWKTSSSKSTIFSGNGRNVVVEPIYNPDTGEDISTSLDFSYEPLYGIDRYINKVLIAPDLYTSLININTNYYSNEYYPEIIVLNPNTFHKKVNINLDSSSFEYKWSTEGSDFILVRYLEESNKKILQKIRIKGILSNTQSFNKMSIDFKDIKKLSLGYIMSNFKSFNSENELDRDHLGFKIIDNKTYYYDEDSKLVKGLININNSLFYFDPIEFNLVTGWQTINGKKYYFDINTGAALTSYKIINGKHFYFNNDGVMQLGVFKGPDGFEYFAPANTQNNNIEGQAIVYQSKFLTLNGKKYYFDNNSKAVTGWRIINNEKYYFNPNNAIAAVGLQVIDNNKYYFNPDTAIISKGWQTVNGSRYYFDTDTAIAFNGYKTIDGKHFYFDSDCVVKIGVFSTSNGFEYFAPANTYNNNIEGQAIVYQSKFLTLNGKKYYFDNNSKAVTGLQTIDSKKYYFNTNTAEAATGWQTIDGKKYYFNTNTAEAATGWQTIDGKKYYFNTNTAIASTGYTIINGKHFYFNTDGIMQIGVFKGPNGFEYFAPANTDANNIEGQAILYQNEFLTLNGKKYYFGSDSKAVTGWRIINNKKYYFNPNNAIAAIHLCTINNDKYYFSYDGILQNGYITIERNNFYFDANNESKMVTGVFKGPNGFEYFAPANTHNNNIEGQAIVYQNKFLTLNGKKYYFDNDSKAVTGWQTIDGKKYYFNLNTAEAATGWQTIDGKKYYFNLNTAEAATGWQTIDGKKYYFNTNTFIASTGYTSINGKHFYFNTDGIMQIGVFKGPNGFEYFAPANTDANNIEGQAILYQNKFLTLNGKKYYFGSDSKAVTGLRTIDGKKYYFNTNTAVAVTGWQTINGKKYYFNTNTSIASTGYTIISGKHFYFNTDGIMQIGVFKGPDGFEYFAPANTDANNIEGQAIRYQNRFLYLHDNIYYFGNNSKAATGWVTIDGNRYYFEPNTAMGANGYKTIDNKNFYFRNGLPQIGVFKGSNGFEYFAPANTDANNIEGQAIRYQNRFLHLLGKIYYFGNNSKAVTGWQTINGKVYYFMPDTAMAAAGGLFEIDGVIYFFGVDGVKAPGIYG
binder,measurement,setting,value
B1,binding result,[1],binds
B2,binding result,[2],no binding
same,binding result,BoNT/A heavy chain,no binding
B3,binding result,[1],binds
B4,binding result,[1],binds
B5,binding result,[1],binds
B6,Kd,[3],~1 nM
B7,binding result,[2],no binding
same,binding result,BoNT/A heavy chain,no binding
B8,fold neutralization of TcdA against the 5D/AH3 heterodimer (CT26 cell rounding),[4],5 fold
same,fold neutralization of TcdB against the 5D/AH3 heterodimer,[5],3 fold and 4 fold
